Columns and labels:
PfuCas1 = target: T1, PfuCas1 (Pyrococcus furiosus COM1, UniProt I6TWX9 1-322); test: EMSA; EMSA on 12% native PAGE, 0.3 uM FAM probe (0.5 uM P1 in Fig S3); buffer, pH and temperature not stated (refers to earlier work); conditions: protein: recombinant, tags: C-terminal His, chain copies: 2, label: 5'-FAM
T1 sequence: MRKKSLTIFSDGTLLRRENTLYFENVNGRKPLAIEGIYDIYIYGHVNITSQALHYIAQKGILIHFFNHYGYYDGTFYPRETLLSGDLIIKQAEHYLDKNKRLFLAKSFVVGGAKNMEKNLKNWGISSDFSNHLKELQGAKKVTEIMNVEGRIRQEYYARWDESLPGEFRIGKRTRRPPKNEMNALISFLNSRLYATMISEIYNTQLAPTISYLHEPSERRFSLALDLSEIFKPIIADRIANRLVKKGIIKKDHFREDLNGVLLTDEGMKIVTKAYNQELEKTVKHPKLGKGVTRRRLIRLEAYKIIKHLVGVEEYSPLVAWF

Cas2 (SisCas2) = target: T2, Cas2 (SisCas2) (Sulfolobus islandicus REY15A, UniProt F0NH44 1-89); test: EMSA; 3.3 and 6.7 uM Cas2; EMSA on 12% native PAGE, 0.3 uM FAM probe (0.5 uM P1 in Fig S3); buffer, pH and temperature not stated (refers to earlier work); conditions: protein: recombinant; tags: C-terminal His; chain copies: 2; label: 5'-FAM on sense strand; mixture of blunt duplex, ssDNA and hairpin
T2 sequence: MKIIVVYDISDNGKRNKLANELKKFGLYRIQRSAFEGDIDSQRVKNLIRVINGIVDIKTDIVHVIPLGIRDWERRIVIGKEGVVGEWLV

B1: Pfu-WT leader-repeat ssDNA (structured_DNA)
DNA: CTCCGTAGGAGGATTGGGGCAAAAAAGCCCCCTGTTCCAATAAGACTACAAAAGAATTGAAAG
B1: binds (PfuCas1; hairpin).

TCCTCCACTTTCCCCGTAAGGGGTCGGAGGGGGCGGTCTTTCCC (structured_DNA) [Syn-S leader ssDNA]: binds (PfuCas1; two predicted hairpins).

B2: leader-proximal WT S/A annealed probe (5:1 or unspecified ratio, contains hairpin ssDNA) (mixed)
DNA 1: CAAATAGAGGGTTAAAAAACCCTCAGCTAATC
DNA 2: GATTAGCTGAGGGTTTTTTAACCCTCTATTTG
B2: no binding (Cas2 (SisCas2)).
